Measurements taken from the supplement of paper PMC10567573.

B1: SOAT1 (parent)
chain: KSAAMLAVFAVSAVVHEYALAVCL

Variants of: B1
Assay: protein stability index of a GFP-peptide fusion (GPS, HEK-293T) (PSI 1-6); higher = more stable
Settings: c terminus: a fixed tail appended
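Further: lentivirally expressed fusions sorted by FACS into six bins by GFP to DsRed ratio, PSI derived from sequencing read proportions per bin multiplied by bin number.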

| Variant | protein stability index |
| --- | --- |
| A10E | 2.05 |
| A10T | 1.83 |
| A10G | 3.62 |
| A10P | 3.61 |
| A10Q | 3.2 |
| A10S | 3.12 |
| A10H | 3.74 |
| A10V | 3.03 |
| V14H | 2.91 |
| V14F | 1.91 |
| V14W | 4 |
| V14L | 3.6 |
| V14D | 3.41 |
| V14N | 2 |
| S2R | 2.91 |
| S2Y | 3.58 |
| S2P | 2.97 |
| S2I | 2.12 |
| S2N | 2.09 |
| S2L | 2.66 |
| S2T | 3.26 |
| S2M | 2.99 |
| L20E | 3.95 |
| L20C | 2.93 |

| Variant | protein stability index |
| --- | --- |
| A13K | 1.37 |
| A13T | 4.82 |
| A13N | 2.97 |
| A13F | 2.17 |
| A13I | 3.04 |
| A13L | 2.81 |
| A13W | 3.01 |
| A13Q | 5.23 |
| H16P | 2.51 |
| H16S | 2.73 |
| H16T | 2.1 |
| H16D | 2.58 |
| H16K | 2.88 |
| H16L | 2.94 |
| Y18D | 2.21 |
| Y18F | 4.1 |
| Y18P | 2.23 |
| Y18M | 1.85 |
| Y18W | 3.5 |
| Y18Q | 2.56 |
| A19L | 3.87 |
| A19Q | 2.44 |
| A19Y | 2.56 |
| A19M | 2.47 |

| Variant | protein stability index |
| --- | --- |
| A19H | 2.88 |
| A19K | 2.39 |
| A19R | 3.46 |
| S12P | 2.41 |
| S12I | 3.04 |
| S12R | 2.11 |
| S12W | 2.99 |
| S12T | 2.46 |
| S12N | 4.18 |
| S12A | 1.63 |
| S12Q | 3.61 |
| A3N | 2.7 |
| A3P | 3.72 |
| A3D | 2.23 |
| A3M | 3.72 |
| A3Q | 3.47 |
| A3G | 2.25 |
| A3V | 1.5 |
| A3S | 2.25 |
| A3I | 3.19 |
| A3H | 3.8 |
| A3T | 2.06 |
| A3W | 1.96 |
| A3K | 2.88 |

| Variant | protein stability index |
| --- | --- |
| A3Y | 2.83 |
| A7Q | 2.59 |
| A7W | 2.69 |
| A7Y | 3.49 |
| A7G | 4.09 |
| A7H | 2.91 |
| A7P | 2.58 |
| A7D | 2.99 |
| A7T | 3.23 |
| A7I | 1.49 |
| A7L | 3.14 |
| A7M | 1.54 |
| A7V | 2.07 |
| A7R | 3.98 |
| M5S | 4.27 |
| M5A | 2.63 |
| M5F | 2.22 |
| M5L | 3.74 |
| M5P | 3.6 |
| M5W | 2.56 |
| M5R | 4.56 |
| M5N | 2.5 |
| M5D | 3.48 |
| M5T | 3.55 |

| Variant | protein stability index |
| --- | --- |
| M5Q | 3.61 |
| M5C | 3.11 |
| M5G | 3.1 |
| M5E | 3.88 |
| A4K | 2.98 |
| A4V | 3.08 |
| A4M | 2.94 |
| A4T | 3.43 |
| A4H | 3.89 |
| A4W | 1.72 |
| A4L | 1.85 |
| A4G | 2.92 |
| A4N | 2.2 |
| A4Y | 2.44 |
| A4D | 2.45 |
| A4I | 1.5 |
| V15G | 2.69 |
| V15Q | 2.06 |
| V15R | 1.83 |
| V15H | 3.15 |
| V8H | 3.18 |
| V8A | 2.89 |
| V8W | 3.01 |
| V8S | 3.28 |

| Variant | protein stability index |
| --- | --- |
| V8K | 2.31 |
| V8I | 1.62 |
| V8C | 2.43 |
| V8Y | 3.31 |
| V8P | 3.28 |
| V8T | 3.11 |
| V8N | 3.98 |
| V8D | 2.77 |
| V8F | 4.29 |
| E17N | 2.23 |
| E17Q | 3.61 |
| E17F | 2.73 |
| E17C | 2.5 |
| E17G | 1.39 |
| E17T | 3.21 |
| L6H | 2.73 |
| L6G | 2.94 |
| L6M | 4.28 |
| L6Q | 2.68 |
| L6F | 2.21 |
| L6C | 3.42 |
| L6I | 3.09 |
| L6D | 2.74 |
| L6R | 2.02 |

| Variant | protein stability index |
| --- | --- |
| L6K | 2.46 |
| L6P | 3.78 |
| L6N | 3.55 |
| L6E | 2.25 |
| F9A | 1.73 |
| F9V | 1.47 |
| F9W | 3.01 |
| F9H | 3.12 |
| F9M | 2.35 |
| F9D | 4.42 |
| F9Q | 3.43 |
| F9S | 2.3 |
| F9R | 2.15 |
| F9P | 1.92 |
| V11R | 2.94 |
| V11F | 2.89 |
| V11H | 1.4 |
| V11N | 3.47 |
| V11D | 3.09 |
| V11C | 2.8 |
| V11Q | 3.03 |
| V11P | 4.61 |
| V11A | 2.8 |
